In paper PMC4434323 one finds binding signal (PBM E-score (-0.5 to 0.5)) data, which are given here for 38 sequences.

Data set [1] deals with T1, nhr-122 (Y41D4B.9) (Caenorhabditis elegans) (UniProt Q95Y09).
T1 sequence: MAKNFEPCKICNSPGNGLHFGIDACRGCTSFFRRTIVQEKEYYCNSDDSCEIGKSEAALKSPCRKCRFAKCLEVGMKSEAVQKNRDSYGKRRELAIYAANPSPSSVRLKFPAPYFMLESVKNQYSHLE

The target of data set [2] is T2, T27F2.4 (T27F2.4) (Caenorhabditis elegans) (UniProt Q22835).
T2 sequence: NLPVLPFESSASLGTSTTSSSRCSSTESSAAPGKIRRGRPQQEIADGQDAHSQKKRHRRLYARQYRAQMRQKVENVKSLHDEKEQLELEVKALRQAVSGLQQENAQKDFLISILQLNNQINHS

Data set [3] relates to T3, C34D1.1 (C34D1.1) (Caenorhabditis elegans).
T3 sequence: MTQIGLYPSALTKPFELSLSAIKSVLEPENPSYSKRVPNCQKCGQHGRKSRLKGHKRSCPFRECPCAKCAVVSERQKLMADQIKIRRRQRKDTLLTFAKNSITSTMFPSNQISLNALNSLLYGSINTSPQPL

In data set [4] the test system is T4, dmd-3 (Y43F8C.10) (Caenorhabditis elegans).
T4 sequence: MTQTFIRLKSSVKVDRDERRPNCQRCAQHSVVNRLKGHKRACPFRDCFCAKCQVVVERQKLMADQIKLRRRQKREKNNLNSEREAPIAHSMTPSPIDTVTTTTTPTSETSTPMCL

The target of data set [5] is T5, hlh-16 (DY3.3) (Caenorhabditis elegans) (UniProt O45320).
T5 sequence: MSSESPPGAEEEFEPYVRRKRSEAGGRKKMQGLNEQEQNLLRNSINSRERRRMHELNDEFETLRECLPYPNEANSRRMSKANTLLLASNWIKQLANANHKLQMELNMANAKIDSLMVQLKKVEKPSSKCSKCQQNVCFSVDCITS

The target of data set [6] is T6, unc-120 (D1081.2) (Caenorhabditis elegans) (UniProt Q18955).
T6 sequence: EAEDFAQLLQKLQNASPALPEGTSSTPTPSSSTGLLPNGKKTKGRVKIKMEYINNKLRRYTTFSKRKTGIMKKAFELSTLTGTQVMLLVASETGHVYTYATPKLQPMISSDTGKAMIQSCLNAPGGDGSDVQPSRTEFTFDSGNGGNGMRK

The target in data set [7] is T7, jun-1 (T24H10.7) (Caenorhabditis elegans) (UniProt G5ECU7).
T7 sequence: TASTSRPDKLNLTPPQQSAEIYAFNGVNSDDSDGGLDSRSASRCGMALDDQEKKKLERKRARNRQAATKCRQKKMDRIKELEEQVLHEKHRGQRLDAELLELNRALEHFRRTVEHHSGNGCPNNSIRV

The target in data set [8] is T8, ces-1 (F43G9.11) (Caenorhabditis elegans) (UniProt G5ECN8).
T8 sequence: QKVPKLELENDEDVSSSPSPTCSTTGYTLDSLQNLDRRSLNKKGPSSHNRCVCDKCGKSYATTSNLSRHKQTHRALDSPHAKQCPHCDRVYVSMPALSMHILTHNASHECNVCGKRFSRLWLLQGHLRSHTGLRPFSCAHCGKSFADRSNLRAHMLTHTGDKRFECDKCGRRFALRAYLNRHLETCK

In data set [9] the target is T9, K02D7.2 (K02D7.2) (Caenorhabditis elegans) (UniProt O45103).
T9 sequence: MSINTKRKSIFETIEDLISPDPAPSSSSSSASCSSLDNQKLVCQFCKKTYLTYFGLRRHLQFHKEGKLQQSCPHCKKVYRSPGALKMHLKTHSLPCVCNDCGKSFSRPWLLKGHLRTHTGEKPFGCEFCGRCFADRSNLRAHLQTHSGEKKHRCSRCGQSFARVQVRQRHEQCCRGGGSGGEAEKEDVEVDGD

The target in data set [10] is T10, mab-3 (Y53C12B.5) (Caenorhabditis elegans) (UniProt O18214).
T10 sequence: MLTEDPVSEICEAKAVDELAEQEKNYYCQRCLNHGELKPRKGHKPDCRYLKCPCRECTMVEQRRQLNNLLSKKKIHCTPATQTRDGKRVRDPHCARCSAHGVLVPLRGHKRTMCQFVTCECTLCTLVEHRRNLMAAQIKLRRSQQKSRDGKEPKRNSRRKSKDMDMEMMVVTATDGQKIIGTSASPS

Data set [11] has as its target T11, Y67D8A.3 (Y67D8A.3) (Caenorhabditis elegans) (UniProt Q95XU1).
T11 sequence: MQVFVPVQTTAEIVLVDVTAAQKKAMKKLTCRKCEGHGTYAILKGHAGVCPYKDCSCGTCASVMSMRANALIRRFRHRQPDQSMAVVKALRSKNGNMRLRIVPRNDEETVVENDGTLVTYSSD

Data set [12] concerns the target T12, hlh-12 (C28C12.8) (Caenorhabditis elegans) (UniProt Q18277).
T12 sequence: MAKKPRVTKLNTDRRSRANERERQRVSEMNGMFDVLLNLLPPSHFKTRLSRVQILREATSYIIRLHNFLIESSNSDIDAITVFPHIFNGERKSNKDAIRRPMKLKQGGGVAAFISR

Data set [13] has as its target T13, atf-2 (K08F8.2) (Caenorhabditis elegans) (UniProt Q21361).
T13 sequence: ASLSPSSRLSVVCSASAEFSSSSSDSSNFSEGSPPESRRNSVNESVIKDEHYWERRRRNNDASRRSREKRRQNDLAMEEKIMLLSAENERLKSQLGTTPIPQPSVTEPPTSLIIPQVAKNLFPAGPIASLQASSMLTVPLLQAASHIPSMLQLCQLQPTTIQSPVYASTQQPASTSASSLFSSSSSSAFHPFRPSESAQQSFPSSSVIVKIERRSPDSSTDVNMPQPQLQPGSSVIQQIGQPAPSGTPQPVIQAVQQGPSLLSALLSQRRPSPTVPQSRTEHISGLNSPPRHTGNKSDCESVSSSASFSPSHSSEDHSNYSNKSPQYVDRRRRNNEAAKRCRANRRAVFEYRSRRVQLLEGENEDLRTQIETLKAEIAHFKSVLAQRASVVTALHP

Data set [14] concerns the target T14, Y51H4A.4 (Y51H4A.4) (Caenorhabditis elegans) (UniProt Q9NAE4).
T14 sequence: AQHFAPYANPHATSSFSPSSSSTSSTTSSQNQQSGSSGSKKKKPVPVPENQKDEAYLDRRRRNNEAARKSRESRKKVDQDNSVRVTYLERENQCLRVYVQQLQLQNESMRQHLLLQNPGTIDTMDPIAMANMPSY

The target of data set [15] is T15, T07C12.11 (T07C12.11) (Caenorhabditis elegans) (UniProt G5EGG9).
T15 sequence: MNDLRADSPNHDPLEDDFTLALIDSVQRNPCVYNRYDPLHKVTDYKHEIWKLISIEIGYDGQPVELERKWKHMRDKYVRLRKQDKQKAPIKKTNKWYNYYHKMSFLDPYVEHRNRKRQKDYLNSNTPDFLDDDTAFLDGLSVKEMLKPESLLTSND

The target of data set [16] is T16, daf-12 (F11A1.3) (Caenorhabditis elegans) (UniProt G5EFF5).
T16 sequence: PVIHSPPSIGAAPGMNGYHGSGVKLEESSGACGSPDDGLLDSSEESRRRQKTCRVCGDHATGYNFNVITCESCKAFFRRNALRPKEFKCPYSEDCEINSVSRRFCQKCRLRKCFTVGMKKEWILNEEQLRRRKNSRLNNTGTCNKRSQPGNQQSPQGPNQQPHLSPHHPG

The target in data set [17] is T17, nhr-3 (H01A20.1) (Caenorhabditis elegans) (UniProt Q9XTJ4).
T17 sequence: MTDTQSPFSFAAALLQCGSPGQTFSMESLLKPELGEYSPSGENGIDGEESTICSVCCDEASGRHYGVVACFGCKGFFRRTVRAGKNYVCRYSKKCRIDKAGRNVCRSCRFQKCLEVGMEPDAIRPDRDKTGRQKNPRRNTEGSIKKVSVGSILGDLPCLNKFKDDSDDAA

In turn, “ATACTCCA (double strand) [8-mer ATACTCCA]” returned a binding signal (PBM E-score (-0.5 to 0.5)) in [1] of 0.456. “AATTCGTA (double strand) [8-mer AATTCGTA]”: the binding signal (PBM E-score (-0.5 to 0.5)) in data set [2] is 0.47. With “AATGTTTC (double strand) [8-mer AATGTTTC]”, the binding signal (PBM E-score (-0.5 to 0.5)) in data set [3] amounted to 0.497; in data set [4], 0.482. “ATGTTTCA (double strand) [8-mer ATGTTTCA]”: the binding signal (PBM E-score (-0.5 to 0.5)) worked out at 0.498 in data set [3] and 0.479 in [4]. For “AATATGGT (double strand) [8-mer AATATGGT]”, the binding signal (PBM E-score (-0.5 to 0.5)) in data set [5] worked out at 0.452; in [6] it was 0.466. In turn, “GTGACTCA (double strand) [8-mer GTGACTCA]” came in with a binding signal (PBM E-score (-0.5 to 0.5)) in [7] of 0.47. For “CCATATGG (double strand) [8-mer CCATATGG]”, the binding signal (PBM E-score (-0.5 to 0.5)) in data set [5] turned out to be 0.452. In turn, “TTCGTAAA (double strand) [8-mer TTCGTAAA]” had a binding signal (PBM E-score (-0.5 to 0.5)) in data set [2] of 0.458. The sequence “ACCTGTTG (double strand) [8-mer ACCTGTTG]” returned a binding signal (PBM E-score (-0.5 to 0.5)) in [8] of 0.493. As for “AACAGGTG (double strand) [8-mer AACAGGTG]”, the figures for the binding signal (PBM E-score (-0.5 to 0.5)) in data set [8] and in [9] were 0.468 and 0.488, respectively. Take “GTGAGTCA (double strand) [8-mer GTGAGTCA]”: the binding signal (PBM E-score (-0.5 to 0.5)) in data set [7] stood at 0.478. Take “GACTCCAA (double strand) [8-mer GACTCCAA]”: in data set [1], the binding signal (PBM E-score (-0.5 to 0.5)) stood at 0.459. Consider “AATGTTGC (double strand) [8-mer AATGTTGC]”, for which the binding signal (PBM E-score (-0.5 to 0.5)) in [10] came out at 0.498; in [3], 0.47; in [4], 0.465. In data set [7], “ATGAGTCA (double strand) [8-mer ATGAGTCA]” displayed a binding signal (PBM E-score (-0.5 to 0.5)) of 0.493. The sequence “CAATATTG (double strand) [8-mer CAATATTG]” returned a binding signal (PBM E-score (-0.5 to 0.5)) in data set [5] of 0.495. As for “ATGACTAA (double strand) [8-mer ATGACTAA]”, the binding signal (PBM E-score (-0.5 to 0.5)) in data set [7] was determined as 0.465. “ATTCGTAA (double strand) [8-mer ATTCGTAA]” gave a binding signal (PBM E-score (-0.5 to 0.5)) in data set [2] of 0.489.

On to “TACTCCAA (double strand) [8-mer TACTCCAA]”, for which the binding signal (PBM E-score (-0.5 to 0.5)) in data set [1] stood at 0.459. As to “ACAATATG (double strand) [8-mer ACAATATG]”, in data set [5], the binding signal (PBM E-score (-0.5 to 0.5)) stood at 0.471. In turn, “AGCAACAG (double strand) [8-mer AGCAACAG]” showed a binding signal (PBM E-score (-0.5 to 0.5)) in [8] of 0.466. Consider “ACTCCAAT (double strand) [8-mer ACTCCAAT]”, for which the binding signal (PBM E-score (-0.5 to 0.5)) in data set [1] stood at 0.464. Regarding “ATTACGAA (double strand) [8-mer ATTACGAA]”, the binding signal (PBM E-score (-0.5 to 0.5)) in [2] was determined as 0.485.

Consider “TACGAATA (double strand) [8-mer TACGAATA]”, for which the binding signal (PBM E-score (-0.5 to 0.5)) in [2] was 0.452. In the case of “AAAAGGTC (double strand) [8-mer AAAAGGTC]”, the binding signal (PBM E-score (-0.5 to 0.5)) in [11] was found to be 0.456. In data set [5], “CAATATGG (double strand) [8-mer CAATATGG]” had a binding signal (PBM E-score (-0.5 to 0.5)) of 0.486. In turn, “ATTAGTCA (double strand) [8-mer ATTAGTCA]” showed a binding signal (PBM E-score (-0.5 to 0.5)) in data set [7] of 0.463. In turn, “ATGACTCA (double strand) [8-mer ATGACTCA]” displayed a binding signal (PBM E-score (-0.5 to 0.5)) in [7] of 0.498.

Consider “CCTGTTGC (double strand) [8-mer CCTGTTGC]”, for which, in [8], the binding signal (PBM E-score (-0.5 to 0.5)) came to 0.479. For “ACCATATG (double strand) [8-mer ACCATATG]”, the binding signal (PBM E-score (-0.5 to 0.5)) in [5] came to 0.478; in data set [12], 0.468. Consider “ACCTGTAG (double strand) [8-mer ACCTGTAG]”, for which the binding signal (PBM E-score (-0.5 to 0.5)) in data set [8] worked out at 0.452. As for “AGACTCCA (double strand) [8-mer AGACTCCA]”, the binding signal (PBM E-score (-0.5 to 0.5)) in [1] is 0.457. For the sequence “ACTTGTTG (double strand) [8-mer ACTTGTTG]”, the binding signal (PBM E-score (-0.5 to 0.5)) in data set [8] was found to be 0.465. As for “TTACGCAA (double strand) [8-mer TTACGCAA]”, the binding signal (PBM E-score (-0.5 to 0.5)) came to 0.483 in [13], 0.487 in data set [14] and 0.494 in data set [15]. Turning to “AAAGGTCA (double strand) [8-mer AAAGGTCA]”, the binding signal (PBM E-score (-0.5 to 0.5)) in data set [16] came to 0.491; in data set [17], 0.479; in data set [11], 0.493. On to “ATGTTGCA (double strand) [8-mer ATGTTGCA]”, for which the binding signal (PBM E-score (-0.5 to 0.5)) in [10] stood at 0.497; in data set [4] it was 0.459.

With “AAAGGTTG (double strand) [8-mer AAAGGTTG]”, the binding signal (PBM E-score (-0.5 to 0.5)) in data set [11] turned out to be 0.454. Consider “AGAAACAT (double strand) [8-mer AGAAACAT]”, for which the binding signal (PBM E-score (-0.5 to 0.5)) in data set [3] came out at 0.492; in data set [4] it was 0.466. In turn, “GAAAGGTC (double strand) [8-mer GAAAGGTC]” yielded a binding signal (PBM E-score (-0.5 to 0.5)) in data set [11] of 0.461.
